{
  "source": "patent US20110171681",
  "key": {"[1]": {"target": "cell surface beta1,4-galactosyltransferase I (GalT), mouse, endogenous (UniProt P15535)"}, "[2]": {"target": "cyclin-dependent kinase inhibitor p57(kip2) (UniProt P49919)"}},
  "data": [
    {"substance": "His tagged GTAP", "values": [
      {"measurement": "in vitro ubiquitination of immunoprecipitated GalT", "setting": "[1]", "result": "Surprisingly GTAP had no effect on immunoprecipitated GalT in an in vitro ubiquitin system"},
      {"measurement": "in vitro ubiquitination of p57 with biotinylated ubiquitin", "setting": "[2]", "result": "GTAP increased the ubiquitination of p57 only in the presence of E1"}
    ]}
  ]
}
